One experiment addresses T1, hiR1-FL-WT-T7 (human, UniProt Q96CC6 1-855).
T1 construct: on MEF-DKO cells
T1 sequence: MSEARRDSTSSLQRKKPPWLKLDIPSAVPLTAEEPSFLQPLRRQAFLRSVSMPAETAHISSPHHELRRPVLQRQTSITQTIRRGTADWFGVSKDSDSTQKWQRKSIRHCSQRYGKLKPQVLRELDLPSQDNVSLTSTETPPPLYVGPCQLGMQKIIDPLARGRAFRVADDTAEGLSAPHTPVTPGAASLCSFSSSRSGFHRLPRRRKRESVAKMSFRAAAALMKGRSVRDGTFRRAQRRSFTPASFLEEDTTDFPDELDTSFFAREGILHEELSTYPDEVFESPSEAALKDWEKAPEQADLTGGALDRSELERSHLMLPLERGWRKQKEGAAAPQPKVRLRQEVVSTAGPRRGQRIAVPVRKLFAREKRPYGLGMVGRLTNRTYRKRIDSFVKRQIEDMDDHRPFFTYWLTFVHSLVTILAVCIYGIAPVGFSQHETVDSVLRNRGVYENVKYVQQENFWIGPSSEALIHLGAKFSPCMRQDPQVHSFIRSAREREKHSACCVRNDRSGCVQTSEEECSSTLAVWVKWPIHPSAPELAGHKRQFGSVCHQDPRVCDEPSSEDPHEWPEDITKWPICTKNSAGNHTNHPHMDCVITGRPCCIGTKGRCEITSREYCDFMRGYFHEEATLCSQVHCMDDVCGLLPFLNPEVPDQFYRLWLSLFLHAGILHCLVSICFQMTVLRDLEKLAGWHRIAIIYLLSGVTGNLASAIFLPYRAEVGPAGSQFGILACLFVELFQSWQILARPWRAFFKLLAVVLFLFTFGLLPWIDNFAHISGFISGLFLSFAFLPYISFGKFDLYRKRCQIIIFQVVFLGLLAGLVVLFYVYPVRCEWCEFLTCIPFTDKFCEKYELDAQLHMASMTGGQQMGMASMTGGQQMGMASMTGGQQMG
As to the kind of experiment: FACS on MEF-DKO-hiR1-FL-WT-T7 cells.

For the next experiment, the target named is T2, miR2-FL-WT-T7 (mouse, UniProt Q80WQ6 1-827).
T2 construct: on MEF-DKO cells
T2 sequence: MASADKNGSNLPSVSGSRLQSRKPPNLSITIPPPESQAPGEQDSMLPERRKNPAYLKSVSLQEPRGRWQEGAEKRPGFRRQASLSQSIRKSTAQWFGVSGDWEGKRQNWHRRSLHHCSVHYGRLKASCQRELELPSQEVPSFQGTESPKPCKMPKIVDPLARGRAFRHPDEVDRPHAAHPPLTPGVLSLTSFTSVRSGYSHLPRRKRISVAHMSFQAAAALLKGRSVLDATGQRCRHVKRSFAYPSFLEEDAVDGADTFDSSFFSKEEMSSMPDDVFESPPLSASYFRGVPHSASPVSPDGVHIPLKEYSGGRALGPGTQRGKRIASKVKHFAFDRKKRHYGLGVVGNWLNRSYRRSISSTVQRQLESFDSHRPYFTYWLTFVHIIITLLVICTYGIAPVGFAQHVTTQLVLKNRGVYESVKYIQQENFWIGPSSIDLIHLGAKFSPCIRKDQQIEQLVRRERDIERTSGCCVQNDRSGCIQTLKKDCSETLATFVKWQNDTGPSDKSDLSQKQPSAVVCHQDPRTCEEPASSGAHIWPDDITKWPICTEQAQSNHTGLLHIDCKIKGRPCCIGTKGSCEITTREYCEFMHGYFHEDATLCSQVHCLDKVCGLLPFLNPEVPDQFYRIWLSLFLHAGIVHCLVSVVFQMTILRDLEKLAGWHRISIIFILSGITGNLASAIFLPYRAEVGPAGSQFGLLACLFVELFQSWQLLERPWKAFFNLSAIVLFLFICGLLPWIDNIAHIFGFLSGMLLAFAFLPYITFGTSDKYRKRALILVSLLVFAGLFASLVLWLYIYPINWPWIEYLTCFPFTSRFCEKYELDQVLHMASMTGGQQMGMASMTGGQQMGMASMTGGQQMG
Nature of the experiment: FACS on MEF-DKO-miR2-FL-WT-T7 cells.

The next experiment concerns the target T3, hiR2-FL-L589P-T7 (human, UniProt Q6PJF5 1-856).
T3 sequence: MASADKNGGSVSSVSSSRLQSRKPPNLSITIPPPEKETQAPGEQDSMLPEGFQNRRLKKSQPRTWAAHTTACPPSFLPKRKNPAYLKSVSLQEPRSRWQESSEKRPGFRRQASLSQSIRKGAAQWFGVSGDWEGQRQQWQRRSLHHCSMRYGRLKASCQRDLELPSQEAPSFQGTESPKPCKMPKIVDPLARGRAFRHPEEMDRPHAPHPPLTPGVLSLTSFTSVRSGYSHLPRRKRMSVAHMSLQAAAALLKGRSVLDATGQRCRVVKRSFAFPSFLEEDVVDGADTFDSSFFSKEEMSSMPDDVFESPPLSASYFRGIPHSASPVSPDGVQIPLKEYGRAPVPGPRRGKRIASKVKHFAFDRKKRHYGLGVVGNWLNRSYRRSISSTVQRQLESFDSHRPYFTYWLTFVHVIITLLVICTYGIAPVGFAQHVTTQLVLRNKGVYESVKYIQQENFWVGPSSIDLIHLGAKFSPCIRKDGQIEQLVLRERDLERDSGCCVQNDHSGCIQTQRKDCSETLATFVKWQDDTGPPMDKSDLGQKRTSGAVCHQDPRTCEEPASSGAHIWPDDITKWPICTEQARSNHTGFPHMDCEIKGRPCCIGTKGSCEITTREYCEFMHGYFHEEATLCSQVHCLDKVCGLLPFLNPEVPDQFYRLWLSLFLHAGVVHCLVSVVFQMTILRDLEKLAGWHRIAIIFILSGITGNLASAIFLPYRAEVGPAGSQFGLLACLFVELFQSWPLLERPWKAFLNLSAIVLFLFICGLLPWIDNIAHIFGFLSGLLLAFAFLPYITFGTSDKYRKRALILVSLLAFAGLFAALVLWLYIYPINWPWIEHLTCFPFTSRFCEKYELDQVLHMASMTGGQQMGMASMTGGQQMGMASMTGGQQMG
Nature of the experiment: FACS on MEF-DKO cells.

B1: antibody 3 (antibody, V domains shown)
VH: QVTLKESGPGILQPSQTLSLTCSFSGFSLTTFAMGIGWVRQPSGKGLEWLAHIWWDGEKYNNPVLKSRLTISKDTSKNQVFLRIANVDTPDTATYYCARISSIYYIIDNWGQGTSVTVSS
VL: DIVLTQSPATLSVTPGHSVSLSCRASQSISNNLHWYQKKSHESPRLLIKYVSQSISGIPSRFSGSGSGTDFTLSINSVETEDFGMYFCQQSYNWPLTFGAGTKLELK
notes: mouse IgG, kappa light chain; also called clone #3; purified antibody 3
Regarding B1, the binding result in the experiment with hiR1-FL-WT-T7 and with miR2-FL-WT-T7 was “no binding (tested: 3 µg/ml)” throughout.

B2: antibody 50 (antibody, V domains shown)
VH: QVQLQQSGAELVRPGASVKVSCKASGYAFSNYLIEWVKQRPGQGLEWIGVINPGSGFTKYNEKFKGKATLTADKSSSTAYMQLSSLTSEDSAVYFCARGLYRAMDYWGQGTSVTVSS
VL: DIQMTQSPASQSASLGESVTITCLASQTIGTWLAWYQQKPGKSPQLLIYAAASLADGVPSRFSGGGSGTKFSFKISSLQAEDFVNYYCQQIYSTPYTFGGGTKLEIK
notes: mouse IgG, kappa light chain; also called clone #50; purified antibody 50
For the molecule B2, the binding result with hiR2-FL-L589P-T7 is given as “no binding (tested: 3 µg/ml)”.

(Values after patent US20240287172A1 (SCIRHOM, published 2024).)
